Changes are numbered by the printed parent chain.
B1: Anti-cTnI-21C5 monoclonal antibody (recombinant) (antibody, mouse IgG2b, V domains shown)
VH: EVQLQQSGPELVKPGASVKMSCKASGYSFTLYVVHWVKQKPGQGLEWIGYIQPYLDGTRYNEKFKGKATLTVDKSSSTAFMELSSLTSEDSAVYYCARTGYGGYGLAWLAYWGQGTLVTVSA
VL: QAVVIQESALTTSPGETVTLTCRSSSGAATTSQYANWVQEKPDHLFTGLIGGSNNRAPGVPARFSGSLIGDKAALTITGAQTEDEAIYFCAIVYSNHWVFGGGTKLTVLG
notes: also called WT; Sample 1
B2: Mutation 2 (antibody, V domains shown)
VH: B1 VH with R59K, T99S
VL: B1 VL with S26T, A57V
notes: Built as m3, with this row's residues
B3: Mutation 1 (antibody, V domains shown)
VH: B1 VH with S28T, R59K, T99S
VL: B1 VL with S26T, I92L
notes: CDR mutant of WT
B4: Mutation 3 (antibody, V domains shown)
VH: B1 VH with S28T, R59H, T99S
VL: B1 VL with A57I, I92A
notes: as for B2
B5: Mutation 1-11 (antibody, V domains shown)
VH: B1 VH with S28T, V34I, Q52N, L55I, R59K, T99S
VL: B1 VL with S26T, A29V, Q33N, N54Q, I92L, H97N
notes: Built as m8
B6: Mutation 1-17 (antibody, V domains shown)
VH: B1 VH with S28T, V34I, Q52N, R59K, T99S
VL: B1 VL with S26T, Q33N, N54Q, I92L, H97Q
notes: Built as m8
B7: Mutation 1-19 (antibody, V domains shown)
VH: B1 VH with S28T, L31I, V34L, Q52N, R59K, T99S, G103N
VL: B1 VL with S26T, A29V, Q33N, N54Q, I92L, H97Q
notes: Built as m8

Biological target: T1, cTnI quality control product recombinant protein (human, UniProt P19429 2-210, limits assumed)
T1 construct: treated as the same molecule; also called cTnI antigen; cardiac troponin I
T1 sequence (P19429 2-210 limits assumed): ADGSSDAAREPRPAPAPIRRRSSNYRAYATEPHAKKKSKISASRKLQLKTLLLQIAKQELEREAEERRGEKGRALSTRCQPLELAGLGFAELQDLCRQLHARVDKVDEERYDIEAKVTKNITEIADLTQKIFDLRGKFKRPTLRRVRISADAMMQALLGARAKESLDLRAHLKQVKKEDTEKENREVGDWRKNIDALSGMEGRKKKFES
Assay: sandwich ELISA, antibody 1.372 ng/ml on anti-mouse IgG, cTnI 0.15 ug/ml, HRP second mAb
Procedure: (§1) After mutation, the antibody activity is detected. 1 μg/ml of goat anti-mouse IgG is diluted with coating solution to coat a microwell plate, 100 μL per well, and overnight at 4 DEG C.; on the next day, it is washed twice with washing solution, and patted dry; blocking solution (20% BSA+80% PBS) is added, 120 μL per well, 37 DEG C., and 1 h, and patted dry; a diluted cTnI monoclonal antibody is added, 100 μL/well, 37 DEG C., and 60 min; liquid in the plate is shaken off, patted dry, and 20% of mouse negative blood is added for blocking, 120 μl per well, 37 DEG C., 1 h; liquid in the plate is shaken off, patted dry, a diluted cTnI antigen (0.15 μg/ml) is added, 100 μL per well, 37 DEG C., and 40 min; it is washed for 5 times with the washing solution, and patted dry; another strain of the cTnI monoclonal antibody (1:5K) labeled with HRP is added, 100 μL per well, 37 DEG C., and 30 min; color developing solution A (50 μL/well) is added, color developing solution B (50 μL/well) is added, 10 min; stop solution is added, 50 μL/well; and a OD value is read at 450 nm (refer to 630 nm) on a microplate reader.

OD450 (ref. 630 nm) [OD] | Binder
0.612 | B1
0.421 | B2
0.94 | B3
0.15 | B4

Biological target: T1, cTnI quality control product …
Assay: sandwich ELISA, antibody 0.000 ng/ml (blank of this series), cTnI 0.15 ug/ml, HRP second mAb
Procedure: as §1

OD450 (ref. 630 nm) [OD] | Binder
0.13 | B1
0.117 | B2
0.114 | B3

Biological target: T1, cTnI quality control product …
Assay: sandwich ELISA, antibody 12.346 ng/ml on anti-mouse IgG, cTnI 0.15 ug/ml, HRP second mAb
Procedure: as §1

OD450 (ref. 630 nm) [OD] | Binder
1.97 | B1
1.94 | B2
2.24 | B3
0.824 | B4

Biological target: T1, cTnI quality control product …
Assay: sandwich ELISA, antibody 37.037 ng/ml on anti-mouse IgG, cTnI 0.15 ug/ml, HRP second mAb
Procedure: as §1

OD450 (ref. 630 nm) [OD] | Binder
2.16 | B1
2.1 | B2
2.33 | B3
1.58 | B4

Biological target: T1, cTnI quality control product …
Assay: AMC sensor, antibody immobilised, cTnI in solution
How it was run: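 Bio-layer interferometry: sensor equilibrated in PBST 60 s, antibody loaded 300 s, PBST baseline 180 s, antigen association 420 s, dissociation in PBST 1200 s. Regenerated with 10 mM glycine pH 1.69. KD (equilibrium dissociation constant), Kon (binding rate) and Kd (dissociation rate) reported.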

Kd [nM] | koff [s⁻¹] | kon [M⁻¹ s⁻¹] | Binder
70.9 | 0.0034 | 48000 | B1
4.23 | 0.000142 | 33500 | B5
7.37 | 0.000237 | 32100 | B6
4.81 | 0.000274 | 57000 | B7
4.2 | 0.000214 | 51000 | B3

Biological target: T1, cTnI quality control product …
Assay: sandwich ELISA, antibody 4.115 ng/ml on anti-mouse IgG, cTnI 0.15 ug/ml, HRP second mAb
Procedure: as §1

OD450 (ref. 630 nm) [OD] | Binder
1.19 | B1
1.51 | B2
1.89 | B3
0.347 | B4

Biological target: T1, cTnI quality control product …
Assay: sandwich ELISA, antibody 0.457 ng/ml on anti-mouse IgG, cTnI 0.15 ug/ml, HRP second mAb
Procedure: as §1

OD450 (ref. 630 nm) [OD] | Binder
0.365 | B1
0.211 | B2
0.524 | B3
